Reference: US20030236190A1 (published 2003)
Positions of bridges follow the written chain, without caps; N, C: chain ends. No end group written: not given here.

B1: 20E2A-4-G11-IGFR (peptide)
peptide: MNVFVSFYDAIDQLVCQRIGC
modifications: not fully specified (N-terminus, C-terminus, bridges); cysteine pairing not given here
B2: RB435 (other, not shown: large carriers)
chain: NNNNLGIEGRISEFIEGRAQPAMAFHENFYDWFVRQVSGGSFHENFYDWFVRQVSGGSFHENFYDWFVRQVSAAAGAPVPYPDPLEPRAA
notes: MBP fusion, uncleaved
B3: RB508 (peptide)
peptide: DYKDDDDKVRVDWLQRNANFYDWFVAELGGGSGGSGRVDWLQRNANFYDWFVAELGAAAGAPVPYPDPLEPRSA
B4: RB509 (peptide)
peptide: DYKDDDDKVRVDWLQRNANFYAWFVAELGGGSGGSGGSGGSGRVDWLQRNANFYDWFVAELGAAAGAPVPYPDPLEPRAA
B5: RB517 (peptide)
peptide: DYKDDDDKHLCVLEELFWGASLFGYCSGGGSGGSHLCVLEELFWGASLFGYCSGAAAGAPVPYPDPLEPRAA
B6: RB521 (peptide)
peptide: MADYKDDDDKGSLDESFYDWFERQLGKKGGSGGSGSLDESFYDWFERQLGKKAAAGAPVPYPDPLEPRPG
notes: Recombinant F1-F1 dimer peptide with tags at both ends
B7: RB535 (peptide)
peptide: MADYKDDDDKGSLDESFYDWFERQLGKKGGSGGSGGSGGSGSLDESFYDWFERQLGKKAAAGAPVPYPDPLEPRPG
notes: as for B6
B8: RB540 (peptide)
peptide: MADYKDDDDKWLDQEWAWVQCEVYGRGCPSAAAGAPVPYPDPLEPRPG
notes: Recombinant F6 monomer peptide with tags at both ends
B9: RB539 (peptide)
peptide: MADYKDDDDKWLDQEWAWVQCEVYGRGCPSGGSGGSGSLDESFYDWFERQLGKKAAAGAPVPYPDPLEPRPG
notes: Recombinant F6-F1 (Site 2-Site 1) dimer peptide with tags at both ends
B10: RB537 (peptide)
peptide: MADYKDDDDKGSLDESFYDWFERQLGKKGGSGGSWLDQEWAWVQCEVYGRGCPSAAAGAPVPYPDPLEPRPG
notes: Recombinant F1-F6 (Site 1-Site 2) dimer peptide with tags at both ends
B11: RB538 (peptide)
peptide: MADYKDDDDKGSLDESFYDWFERQLGKKGGSGGSGGSGGSWLDQEWAWVQCEVYGRGCPSAAAGAPVPYPDPLEPRPG
notes: as for B10
B12: RB626 (peptide)
peptide: MADYKDEIEAEWGRVRCLVYGRCVGGGGSGGSGGSGGSGSLDESFYDWFERQLGKKAAAGAPVPYPDPLEPRPG
notes: Recombinant F6-F1 dimer peptide with tags at both ends
B13: RB625 (peptide)
peptide: MADYKDDDDKWLDQEWAWVQCEVYGRGCPSQPPPPDITTHRADPQGSLDESFYDWFERQLGKKAAAGAPVPYPDPLEPRPG
notes: as for B12
B14: RB622 (peptide)
peptide: MADYKDDDDKWLDQEWAWVQCEVYGRGCPSTPKPPTPPPLSADGSLDESFYDWFERQLGKKAAAGAPVPYPDPLEPRPG
notes: as for B12
B15: 26L-3-G5-IR (peptide)
peptide: AETSAQVGWQRLWSVWPGDHWSTLDPFYHKLSELLRESGA
modifications: not fully specified (residue 27, N-terminus, C-terminus); printed as AETSAQVGWQRLWSVWPGDHWSTLDP9YHKLSELLRESGA

These binders were tested against T1, recombinant human IGF-1R (rhIGF-1R) (human, UniProt P08069 31-935) (assay: ratio of the IC50 at rhIGF-1R (TR-FRET) to the IC50 at sIR-Fc (FP); higher values indicate higher affinity for IR than IGF-1R).
T1 construct: extracellular domain; Coated on plates in the TRF assay and europium-labelled (LANCE) in the TR-FRET assays; also called rhIGE-1R; Eu3+-rhIGF-1R

| Binder | Binding Ratio IGF-1R/IR |
| --- | --- |
| PPWGARFYDAIEQLVFDNL [RP4] | 476 |
| SQAGSAFYAWFDQVLRTV [RP15] | 25 |
| GIISQSCPESFYDWFAGQVSDPWWCW [G33] | 1.3 |

These binders were tested against T2, Soluble IGF-1R (UniProt P08069 31-935, limits assumed) (assay: phage ELISA; ratio over background for IGF-1R divided by that for IR).
T2 construct: extracellular domain; Bought reagent; also called sIGF-1R; insulin-like growth factor receptor

| Binder | IGF-1R/IR ratio comparison |
| --- | --- |
| SSETAKMVTGTRDDPFYHKLSELVQGS [B6Hα-2-D8-IR] | 3 ratio |
| GCITAENGAGDPFYHKLSELGGCS (disulfide 2-23 (inferred); not fully specified (N-terminus, C-terminus)) [B6Hα-1-23-IR] | 2.9 ratio |
| RCGDEEGWQENRRDDPFYHKLSELFGGC (disulfide 2-28 (inferred); not fully specified (N-terminus, C-terminus)) [B6Hα-3-ES-IR] | 2.9 ratio |
| B1 | 2.6 ratio |
| QSGSGDFYDWLSRLIRGNGDG (not fully specified (N-terminus, C-terminus)) [20E2Bβ-3-C7-IR] | 2 ratio |
| CGAKMTGTPNDPFYHKLSELLQRG [B6Hα-3-E6-IR] | 1.9 ratio |
| GHYFGSFYDAIDQLVAGMLPG [20E2A-3-A3-IGFR] | 1.9 ratio |
| CSMAAVAEAGDDDDPFYHKLSELCQGS [B6Hα-3-F1-IR] | 1.8 ratio |
| AGSVTSFYDAMEQLVATGTSA [20E2A-3-A4-IGFR] | 1.4 ratio |
| VRGFQGGTVWPGYEWLRNAA (not fully specified (N-terminus, C-terminus)) [R20β-E8-IR] | 9.7 ratio |
| LSCLAYSRHGIWRPSTDLGLGRSVGEGSVSTRWRGYDWFE [40F-4-D1-IGFR] | 13.1 ratio |

The binders below were run against human insulin receptor (HIR) (human, UniProt P06213 28-1382, limits assumed) (assay: HIR Kd, Table 14; competition with 125I-insulin on solubilised HIR (method of Example 3, not restated for this table)).

| Binder | Kd |
| --- | --- |
| B2 | 2000 nM |
| B3 | 150 nM |
| B4 | 55 nM |
| B5 | 6000 nM |
| B6 | 44 nM |
| B7 | ~100 nM |
| B8 | ~100 nM |
| B9 | 0.7 nM |
| B10 | 0.059 nM |
| B11 | 0.017 nM |
| B12 | 0.3 nM |
| B13 | 0.38 nM |
| B14 | 1 nM |
| MQNDDGSLDESFYDWFERQLGHHHHHHPG (F1 monomer with a His tag) [RB596] | 94 nM |
| MGSLDESFYDWFERQLGEEEGGDHHHHHHPG (F1 monomer with a His tag) [RB569] | 210 nM |
| MQNDDGSLDESFYDWFERQLGEEEGGDHHHHHHPG (F1 monomer with a His tag) [RB570] | 25 nM |

These binders were tested against T2, Soluble IGF-1R (assay: not given).

| Binder | ratio over background, IGF-1R |
| --- | --- |
| SSETAKMVTGTRDDPFYHKLSELVQGS [B6Hα-2-D8-IR] | 3 ratio over background |
| GCITAENGAGDPFYHKLSELGGCS (disulfide 2-23 (inferred); not fully specified (N-terminus, C-terminus)) [B6Hα-1-23-IR] | 3.2 ratio over background |
| RCGDEEGWQENRRDDPFYHKLSELFGGC (disulfide 2-28 (inferred); not fully specified (N-terminus, C-terminus)) [B6Hα-3-ES-IR] | 2.9 ratio over background |
| B1 | 3.3 ratio over background |
| QSGSGDFYDWLSRLIRGNGDG (not fully specified (N-terminus, C-terminus)) [20E2Bβ-3-C7-IR] | 3.1 ratio over background |
| CGAKMTGTPNDPFYHKLSELLQRG [B6Hα-3-E6-IR] | 2.3 ratio over background |
| GHYFGSFYDAIDQLVAGMLPG [20E2A-3-A3-IGFR] | 3 ratio over background |
| CSMAAVAEAGDDDDPFYHKLSELCQGS [B6Hα-3-F1-IR] | 2.4 ratio over background |
| AGSVTSFYDAMEQLVATGTSA [20E2A-3-A4-IGFR] | 2.5 ratio over background |
| VRGFQGGTVWPGYEWLRNAA (not fully specified (N-terminus, C-terminus)) [R20β-E8-IR] | 34.9 ratio over background |
| LSCLAYSRHGIWRPSTDLGLGRSVGEGSVSTRWRGYDWFE [40F-4-D1-IGFR] | 4.6 ratio over background |

The binders below were run against T3, soluble human insulin receptor-immunoglobulin heavy chain chimera (sIR-Fc) (human, UniProt P06213 28-956, limits assumed) (assay: fluorescence polarization competition with FITC-RP9 for sIR-Fc).
T3 construct: extracellular domain; also called sIR-Ec; not shown: immunoglobulin heavy chain constant domains

| Binder | IC50 |
| --- | --- |
| FHENFYDWFVQRVSKK (also called H2C (D117)) [H2C] | 66 nM |
| PPWGARFYDAIEQLVFDNL [RP4] | 17 nM |
| SQAGSAFYAWFDQVLRTV [RP15] | 28 nM |
| GIISQSCPESFYDWFAGQVSDPWWCW [G33] | 139 nM |
| GGTVWPGYEWLRNA [E8] | 206 nM |

Each binder was assayed against T1, recombinant human IGF-1R (rhIGF-1R) (assay: TR-FRET competition with b-20E2 for rhIGF-1R).

| Binder | IC50 |
| --- | --- |
| PPWGARFYDAIEQLVFDNL [RP4] | 8100 nM |
| SQAGSAFYAWFDQVLRTV [RP15] | 706 nM |
| GIISQSCPESFYDWFAGQVSDPWWCW [G33] | 178 nM |

These binders were tested against T1, recombinant human IGF-1R (rhIGF-1R) (assay: TR-FRET competition with b-20E2 for Eu3+-rhIGF-1R).

| Binder | IC50 |
| --- | --- |
| FHENFYDWFVQRVSKK (also called H2C (D117)) [H2C] | 460 nM |
| LDALDRLMRYFEERPSL [S173] | 6290 nM |
| WLEQERAWIWCEIQGSGCRA (not fully specified (bridges); cysteine pairing not given here) [D8B12] | 11300 nM |
| SAKNFYDWFVKK [A6] | 31000 nM |

These binders were tested against T4, Insulin receptor (IR) prepared according to Bass et al., 1996 (human, UniProt P06213 28-956) (assay: phage ELISA; ratio over background for IR divided by that for IGF-1R).
T4 construct: extracellular domain; also called soluble IR (Bass construct); sIR-Fc; not shown: immunoglobulin heavy chain constant domains of the Bass chimera

| Binder | IR/IGF-1R ratio comparison |
| --- | --- |
| SSETAKMVTGTRDDPFYHKLSELVQGS [B6Hα-2-D8-IR] | 0.3 ratio |
| GCITAENGAGDPFYHKLSELGGCS (disulfide 2-23 (inferred); not fully specified (N-terminus, C-terminus)) [B6Hα-1-23-IR] | 0.3 ratio |
| RCGDEEGWQENRRDDPFYHKLSELFGGC (disulfide 2-28 (inferred); not fully specified (N-terminus, C-terminus)) [B6Hα-3-ES-IR] | 0.3 ratio |
| B1 | 0.4 ratio |
| QSGSGDFYDWLSRLIRGNGDG (not fully specified (N-terminus, C-terminus)) [20E2Bβ-3-C7-IR] | 0.5 ratio |
| CGAKMTGTPNDPFYHKLSELLQRG [B6Hα-3-E6-IR] | 0.5 ratio |
| GHYFGSFYDAIDQLVAGMLPG [20E2A-3-A3-IGFR] | 0.5 ratio |
| CSMAAVAEAGDDDDPFYHKLSELCQGS [B6Hα-3-F1-IR] | 0.5 ratio |
| B15 | 0.7 ratio |
| AGSVTSFYDAMEQLVATGTSA [20E2A-3-A4-IGFR] | 0.7 ratio |
| VRGFQGGTVWPGYEWLRNAA (not fully specified (N-terminus, C-terminus)) [R20β-E8-IR] | 0.1 ratio |
| LSCLAYSRHGIWRPSTDLGLGRSVGEGSVSTRWRGYDWFE [40F-4-D1-IGFR] | 0.1 ratio |

What follows are binders tested against T4, Insulin receptor (IR) prepared … (assay: not given).

| Binder | ratio over background, IR |
| --- | --- |
| SSETAKMVTGTRDDPFYHKLSELVQGS [B6Hα-2-D8-IR] | 1 ratio over background |
| GCITAENGAGDPFYHKLSELGGCS (disulfide 2-23 (inferred); not fully specified (N-terminus, C-terminus)) [B6Hα-1-23-IR] | 1.1 ratio over background |
| RCGDEEGWQENRRDDPFYHKLSELFGGC (disulfide 2-28 (inferred); not fully specified (N-terminus, C-terminus)) [B6Hα-3-ES-IR] | 1 ratio over background |
| B1 | 1.3 ratio over background |
| QSGSGDFYDWLSRLIRGNGDG (not fully specified (N-terminus, C-terminus)) [20E2Bβ-3-C7-IR] | 1.5 ratio over background |
| CGAKMTGTPNDPFYHKLSELLQRG [B6Hα-3-E6-IR] | 1.2 ratio over background |
| GHYFGSFYDAIDQLVAGMLPG [20E2A-3-A3-IGFR] | 1.5 ratio over background |
| CSMAAVAEAGDDDDPFYHKLSELCQGS [B6Hα-3-F1-IR] | 1.3 ratio over background |
| B15 | 1.4 ratio over background |
| AGSVTSFYDAMEQLVATGTSA [20E2A-3-A4-IGFR] | 1.8 ratio over background |
| VRGFQGGTVWPGYEWLRNAA (not fully specified (N-terminus, C-terminus)) [R20β-E8-IR] | 3.6 ratio over background |
| LSCLAYSRHGIWRPSTDLGLGRSVGEGSVSTRWRGYDWFE [40F-4-D1-IGFR] | 0.3 ratio over background |
